From publication PMC11512059 (Nature Communications, 2024)

B1: human connexin 36 Ala14 deletion variant gap junction channel in lipid nanodiscs containing brain lipids (Cx36_(Nano-BL)-∆A14) (natural protein, UniProt Q9UKL4 1-321, looked up)
chain: MGEWTILERLLEAVQQHSTMIGRILLTVVVIFRILIVAIVGETVYDDEQTMFVCNTLQPGCNQACYDRAFPISHIRYWVFQIIMVCTPSLCFITYSVHQSAKQRERRYSTVFLALDRDPPESIGGPGGTGGGGSGGGKREDKKLQNAIVNGVLQNTENTSKETEPDCLEVKELTPHPSGLRTASKSKLRRQEGISRFYIIQVVFRNALEIGFLVGQYFLYGFSVPGLYECNRYPCIKEVECYVSRPTEKTVFLVFMFAVSGICVVLNLAELNHLGWRKIKLAVRGAQAKRKSIYEIRNKDLPRVSVPNFGRTQSSDSAYV
B2: human connexin 36 gap junction channel, wild type, in lipid nanodiscs containing brain lipids (Cx36_(Nano-BL)-WT) (natural protein, UniProt Q9UKL4 1-321, looked up)
chain: MGEWTILERLLEAAVQQHSTMIGRILLTVVVIFRILIVAIVGETVYDDEQTMFVCNTLQPGCNQACYDRAFPISHIRYWVFQIIMVCTPSLCFITYSVHQSAKQRERRYSTVFLALDRDPPESIGGPGGTGGGGSGGGKREDKKLQNAIVNGVLQNTENTSKETEPDCLEVKELTPHPSGLRTASKSKLRRQEGISRFYIIQVVFRNALEIGFLVGQYFLYGFSVPGLYECNRYPCIKEVECYVSRPTEKTVFLVFMFAVSGICVVLNLAELNHLGWRKIKLAVRGAQAKRKSIYEIRNKDLPRVSVPNFGRTQSSDSAYV

Molecular target: the molecule itself
Experiment: cryo-EM structure

| Protein | binding result |
| --- | --- |
| B1 | binds |
| B2 | binds |
